Results published in paper PMC10278182, “Evaluation of Nanopore Sensor Design Using Electrical and Optical Analyses” (ACS Nano, 2023).

Experiments:
Assay in all cases: BLI; ND-BLI: biotinylated nanodiscs (15 nM) with reconstituted nanopores loaded on streptavidin (SAX) sensors; WDR5 in solution, 1 to 18 μM; 300 mM KCl, 20 mM Tris-HCl, 1 mg/mL BSA, 1 mM TCEP, pH 7.5; 24 °C; empty nanodiscs as reference
Conditions in all cases: both partners purified
[1] = molecular target: T1, WD40 repeat protein 5 truncation mutant lacking residues 1-22 (WDR5ΔN) (UniProt P61964 23-334)
[2] = molecular target: T1, WD40 repeat protein 5 truncation mutant …; remark: listed apart in the source
[3] = molecular target: T1, WD40 repeat protein 5 truncation mutant …; remark: listed apart in the source

Row | Binder | Kd [1] [µM] | koff [2] [s⁻¹] | kon [2] [M⁻¹ s⁻¹] | koff [3] [s⁻¹] | kon [3] [M⁻¹ s⁻¹]
1 | MGDRGPEFELGTMLNPHGAARAEVYLRPAPAPA (other) [O(PA)3 nanopore sensor (adaptor O - MLL4Win - (PA)3 tether - tFhuA)] | 3.01 ± 0.94 | 0.018 | 6000 |  | 
2 | MLNPHGAARAEVYLRGGSGGS (other) [(GGS)2 nanopore sensor without the peptide adaptor (MLL4Win - (GGS)2 tether - tFhuA)] | 0.26 ± 0.03 |  |  | 0.0049 | 19000
3 | MGDRGPEFELGTMLNPHGAARAEVYLRGGSGGS (other) [O(GGS)2 nanopore sensor (adaptor O - MLL4Win - (GGS)2 tether - tFhuA)] | 0.25 ± 0.05 |  |  | 0.0046 | 19000
